Results: article PMC2275077 (Nucleic Acids Research, 2008)

T1: TAP-tagged HMO1 (S. cerevisiae, UniProt Q03973 1-246)
T1 sequence: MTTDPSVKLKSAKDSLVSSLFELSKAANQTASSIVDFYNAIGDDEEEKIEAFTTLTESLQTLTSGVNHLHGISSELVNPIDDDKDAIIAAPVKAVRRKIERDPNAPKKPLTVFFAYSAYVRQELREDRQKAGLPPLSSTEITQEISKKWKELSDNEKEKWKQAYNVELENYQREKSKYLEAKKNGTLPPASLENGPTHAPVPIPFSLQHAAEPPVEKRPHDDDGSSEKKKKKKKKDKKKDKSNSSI


Biological target: T1, TAP-tagged HMO1
Assay: TAP purification with immunoblot

Binder | percent recovered with HMO1-TAP
TAF1 (natural protein) MVKQQGSGKTNLANEDEAYEAIFGGEFGSLEIGSYIGGDEGANSKDYTEHLPDAVDFEDEDELADDDDDLPEESDANLHPAMMTMGAYDDVNENGAVLGIDSNSLNMQLPEINGDLSQQFILEDDGGTPATSNALFMGMDANEIHLATETGVLDGSGANEIGHSQLSIGGVNGNDMSINGGFIMEPDMSDGKHKKATKLDLINHEKYLLKKYFPDFEKGKILKWNKLIYRRSVPYHWHSEISRVKKPFMPLNLKFKVQQDDKRLFNSRTISYVAPIYQGKNNLLQSNSSASRRGLIHVSIDELFPIKEQQKKRKIIHDEKTISEDLLIATDDWDQEKIINQGTSSTATLADSSMTPNLKFSGGYKLKSLIEDVAEDWQWDEDMIIDAKLKESKHAELNMNDEKLLLMIEKTNNLAQQKQQLDSSNLILPLNETILQQKFNLSNDDKYQILKKTHQTKVRSTISNLNIQHSQPAINLQSPFYKVAVPRYQLRHFHRENFGSHIRPGTKIVFSKLKARKRKRDKGKDVKESFSTSQDLTIGDTAPVYLMEYSEQTPVALSKFGMANKLINYYRKANEQDTLRPKLPVGETHVLGVQDKSPFWNFGFVEPGHIVPTLYNNMIRAPVFKHDISGTDFLLTKSSGFGISNRFYLRNINHLFTVGQTFPVEEIPGPNSRKVTSMKATRLKMIIYRILNHNHSKAISIDPIAKHFPDQDYGQNRQKVKEFMKYQRDGPEKGLWRLKDDEKLLDNEAVKSLITPEQISQVESMSQGLQFQEDNEAYNFDSKLKSLEENLLPWNITKNFINSTQMRAMIQIHGVGDPTGCGEGFSFLKTSMKGGFVKSGSPSSNNNSSNKKGTNTHSYNVAQQQKAYDEEIAKTWYTHTKSLSISNPFEEMTNPDEINQTNKHVKTDRDDKKILKIVRKKRDENGIIQRQTIFIRDPRVIQGYIKIKEQDKEDVNKLLEEDTSKINNLEELEKQKKLLQLELANLEKSQQRRAARQNSKRNGGATRTENSVDNGSDLAGVTDGKAARNKGKNTTRRCATCGQIGHIRTNKSCPMYSSKDNPASPK | ~0.01%
TAF11 (natural protein) MTEPQGPLDTIPKVNYPPILTIANYFSTKQMIDQVISEDQDYVTWKLQNLRTGGTSINNQLNKYPKYKYQKTRINQQDPDSINKVPENLIFPQDILQQQTQNSNYEDTNTNEDENEKLAQDEQFKLLVTNLDKDQTNRFEVFHRTSLNKTQVKKLASTVANQTISENIRVFLQAVGKIYAGEIIELAMIVKNKWLTSQMCIEFDKRTKIGYKLKKYLKKLTFSIIENQQYKQDYQSDSVPEDEPDFYFDDEEVDKRETTLGNSLLQSKSLQQSDHNSQDLKLQLIEQYNKLVLQFNKLDVSIEKYNNSPLLPEHIREAWRLYRLQSDTLPNAYWRTQGEGQGSMFR | ~0.01%
